From patent publication US20110263825A1 (OSAKA UNIVERSITY, published 2011)
Residue numbers refer to the chain shown, from its start.

T1: human CD20 antigen (human, UniProt P11836 1-297)
T1 construct: whole, on cells; also called human CD20 molecule
T1 sequence (looked up): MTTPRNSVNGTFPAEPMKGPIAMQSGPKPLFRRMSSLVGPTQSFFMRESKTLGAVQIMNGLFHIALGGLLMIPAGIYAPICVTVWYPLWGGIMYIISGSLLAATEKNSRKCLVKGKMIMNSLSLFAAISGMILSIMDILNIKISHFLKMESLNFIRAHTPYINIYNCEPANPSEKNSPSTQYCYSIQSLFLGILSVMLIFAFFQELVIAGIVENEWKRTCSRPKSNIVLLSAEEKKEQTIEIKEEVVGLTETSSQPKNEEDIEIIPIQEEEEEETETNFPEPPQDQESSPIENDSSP

B1: humanized antibody 1782 clone ff (antibody, V domains shown)
VH: QVQLVQSGAEVKKPGASVKVSCKASGYTFTSYWMHWVKQAPGQGLEWIGYITPSTGYTDYNKKFKDKATLTADRSSSTAYMELSSLRSEDTAVYYCARSGPYFDVWGAGTTVTVSS
VL: DILLTQSPATLSVSPGERATLSCRASQNIGTSIHWYQQRPGQSPRLLIKYASESFSGIPSRFSGSGSGTDFTLTINSLQPEDIADYYCQQSNSWPFTFGSGTKLEIK
notes: kg1 constructs (C kappa / C gamma1 vector); also called h1782ff; hz1782-ff14
B2: humanized antibody 1782 clone sf (antibody, V domains shown)
VH: B1 VH
VL: B1 VL with V13L, I29V, I33L, R39K, S54R, S56T, N76S, Q79E, I83F
notes: kg1 constructs; also called h1782sf; hz1782-sf23
B3: humanized antibody 1782 clone fv (antibody, V domains shown)
VH: B1 VH with V11L
VL: B1 VL
notes: kg1 constructs; also called h1782fv; hz1782-fv02
B4: humanized antibody 1782 clone ss (antibody, V domains shown)
VH: B1 VH with K62Q, K65Q, D66G
VL: B1 VL with V13L, I29V, I33L, R39K, S54R, S56T, N76S, Q79E, I83F
notes: kg1 constructs; also called h1782ss; hz1782-ss21

Experiments:
[1] = biological target: T1, human CD20 antigen; test: Scatchard analysis on Raji cells, FITC anti-mouse IgG detection
[2] = biological target: T1, human CD20 antigen; test: Scatchard analysis on Raji cells, FITC-labeled Protein A detection
[3] = biological target: T1, human CD20 antigen; test: Scatchard analysis on Raji cells, FITC-labeled Protein A detection; repeated from Table 8

Row | Molecule | Kd [1] | Kd [2] | Kd [3]
1 | mouse antibody 2B8 | 6.79 nM | – | –
2 | B1 | – | 4.38 nM | 4.38 nM
3 | B2 | – | 7.43 nM | 7.43 nM
4 | B3 | – | 6.76 nM | 6.76 nM
5 | B4 | – | 8.64 nM | 8.64 nM
